# Data from the nanobody polyreactivity screen of Harvey et al. (2022).
# Experiment: yeast display, Sf9 membrane polyspecificity reagent, FACS + sequencing; frameworks hold sequencing errors
# How it was run: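 Galactose induction of a Saccharomyces cerevisiae BJ5465 synthetic nanobody display library ran 36–48 hours. The cells were then stained for 1 hour at 4 °C with 10% biotinylated, detergent-solubilized Sf9 membrane reagent, pulled down on streptavidin microbeads and FACS-sorted into low and high (top ~1%) gates on expression and reagent-binding fluorescence. Labels for polyreactivity follow the gate of origin.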
row,Sequence,polyreactivity (PSR sort gate)
1,QVQLVESGGGLVQAGGSLRLSCAASGFTFRKNAMGWYRQAPGKERELVAAISSGGGRTYYADSVKGRFTISRDNAKNTVYLQMNSLKPEDTAVYYCNAVRVVRLTFQDWISMDYWGQGTQVTVSS,high polyreactivity
2,QVQLVESGGGLVQAGGSLRLSCAASGFTFRLYAMGWYRPAPGKERELVARISSGGSTHYADSVKGRFTISRDNAKNTVSLQMNSLKPEDTAVYYCAAGWGYWRSYGSWGQGTQVTVSS,high polyreactivity
3,QVQLVESGGGLVQAGGSLRLSCAASGFTFRLYVMGWYRQAPGKERELVAAISSRGGSTYYADSVKGRFTISRDNAKNTVYLQMNSLKPEDTAVYYCAADRPRGRETVDYWGQGTQVTVSS,high polyreactivity
4,QVQLVESGGGLVQAGGSLRLSCAASGFTFRNYAMGWYIQAPGKERELVATISWSGGSTYYADSVKGRFTISRDNAKNTVYLQMNSLKPEDTAVYYCAAKTILWKYYPYYYVTYDYWGQGTQVTVSS,high polyreactivity
5,QVQLVESGGGLVQAGGSLRLSCAASGFTFRQNAMGWYRQAPGNERELVAVITKSAGSTYYADSVKGRFTISRDNAKNTVYLQMNSLKPEATAVYYCNKRQRFVSSCRRSQGIGWEDDYWGQGTQVTVSS,low polyreactivity
6,QVQLVESGGGLVQAGGSLRLSCAASGFTFRRNAMGWYRQAPGKERELVAAINVRDGSTYYADSVKGRFTISRDNAKNTVYLQMNSLKPEDTAVYYCAAEFFQGYYWYYYWGQGTQVTVSS,high polyreactivity
7,QVQLVESGGGLVQAGGSLRLSCAASGFTFRRNAMGWYRQAPGKERELVAAISSSGGSTSYADSVKGRFTISRDNAKNTVYLQMNSLKPEDTAVYYCAVEVASYDRRPSEYYWGQGTQVTVSS,high polyreactivity
8,QVQLVESGGGLVQAGGSLRLSCAASGFTFRRNAMGWYRQAPGKERELVASITINGGSTTYADSVKGRFTISRDNAKNTVYLQMNSLKPEDTAVYYCNKRYRTYRSVPQYEYWGQGTQVTVSS,high polyreactivity
9,QVQLVESGGGLVQAGGSLRLSCAASGFTFRRYAMGWYRPARGKERELVAAIRQSGGSTYADSVKGRFTISRDNAKNTVYLQMNSLKPEDTAVYYCNAGVRAVNRKYDYWGQGTQVTVSS,high polyreactivity
10,QVQLVESGGGLVQAGGSLRLSCAASGFTFRRYAMGWYRQAPGKERELVAAISASGGNTYYADSVKGRFTISRDNAKNTVYLQMNSLKPEDTAVYYCATDWTVRYDYWGQGTQVTVSS,high polyreactivity
11,QVQLVESGGGLVQAGGSLRLSCAASGFTFRSYAMGWYRQAPGKEREFVAAINGRSGSTYADSVKGRFTISRDNAKNTVYLQMNSLNPEDTAVYYCAAGQRHKNSNRPDNYWGQGSQVTVSS,high polyreactivity
12,QVQLVESGGGLVQAGGSLRLSCAASGFTFRVNAMGWYRQAPGKERELVAASSSGGRTYYADSVKGRFTISRDNAKNTVYLQMNSLKPEDTAVYYCNAGRVRHGNDYWGQGTQVTVSS,high polyreactivity
13,QVQLVESGGGLVQAGGSLRLSCAASGFTFRVYAMGGYRPAPGKERELVAAITSGSSTTYADSVKGRFTISRDNAKNTVYLQMNSLKPEDTAVYYCNARRRGRVTGSYGYWGQGTQVTVSS,high polyreactivity
14,QVQLVESGGGLVQAGGSLRLSCAASGFTFRVYAMGRYRQAPGKERELVAVISGTGGRTYYADSVKGRFTISRDNAKNTVYLQMNSLKPEDTAVYYCARRGRPPAIYDYWGQGTQVTVSS,high polyreactivity
15,QVQLVESGGGLVQAGGSLRLSCAASGFTFRVYAMGWYRQAPGKERELVAAITQRGGSTYYADSVKGRFTISRDNSKNTVYLQMNRLNTEDTAVYYCNKFAGQPTYDYWGQGTQVTVSS,high polyreactivity
16,QVQLVESGGGLVQAGGSLRLSCAASGFTFRVYAMGWYRQAPGKERELVAVISGTGGRTYYADSVKGRFTISRDNAKNTVYLQMNSLKPEDTAVYYCARRGRPPAIYDYWGQGTQVTVSS,high polyreactivity
17,QVQLVESGGGLVQAGGSLRLSCAASGFTFRWNAMGWYRQAPGKERELVAAITSRGGSTYYADSVKGRFTISRDNAKNTVYLQINSLKPEDTAVYYCARLAGIGFSYRYDYWGQGTQVTVSS,high polyreactivity
18,QVQLVESGGGLVQAGGSLRLSCAASGFTFRWYAMGSYRQAPGKERELVAAISSSGGSTYYADSVKGRFTISRDNAKNTVYLQMNSLKPEDTAVYYCAAASLRPYQRAYGYEYWGQGTQVTVSS,high polyreactivity
19,QVQLVESGGGLVQAGGSLRLSCAASGFTFRWYAMGWYRQAPGKERELVAAISVSGGSTSYADSVKGRFTISRDNAKNTVYLQMNSLKPEDTAVYYCAAVRWAGYVSDYGYWGQGTQVTVSS,high polyreactivity
20,QVQLVESGGGLVQAGGSLRLSCAASGFTFRYNAMGWYRQAPGKEREFVAAITVTGGSTYYADSVKGRFTISRDNAKNTVYLQMNCLKPEDTAVYYCNAYRYTSSKFGYWGQGTQVTVSS,low polyreactivity
21,QVQLVESGGGLVQAGGSLRLSCAASGFTFRYNAMGWYRQAPGKERELVAAISWSGGSTYYADSVKGRFTISRDNAKNTVYLQMNSLKPEDTAVYYCNRAYGYSFSLNRYDYWGQGTQVTVSS,low polyreactivity

row,Sequence,polyreactivity (PSR sort gate)
1,QVQLVESGGGLVQAGGSLRLSCAASGFTFRYNTMGWYRQAPGKERELVAAISSSGGRTYYADSVKGRFTISRDNAKNTVYLQMNSLKPEDTAVYYCNAVTRESGGFDYWGQGTQVTVSS,high polyreactivity
2,QVQLVESGGGLVQAGGSLRLSCAASGFTFRYYAMGGYRQAPGKERELVAAITASGGSTNYADSVKGRFTISRDNAKNTVYLQMNSLKPEDTAVYYCAADVRFSYYNRYRGYSAYDNWGQGTQVTVSS,high polyreactivity
3,QVQLVESGGGLVQAGGSLRLSCAASGFTFRYYAMGWYRQAPGKERELVAAISWSGASTYYADSVKGRFTISRDNAKNTVYLQMNSLKPEDTAVYYCAADIPGTYYYWGQGTQVTVSS,high polyreactivity
4,QVQLVESGGGLVQAGGSLRLSCAASGFTFRYYAMGWYRQAPGKERELVAAISWSGGRTYYADSVKGRFTISRDNAKNTVYLQMNSLKPEDTAVYYCAADGYPYFYGDFDYWGQGTQVTVSS,high polyreactivity
5,QVQLVESGGGLVQAGGSLRLSCAASGFTFRYYAMGWYRQAPGKERELVASISARGGITNYADSVKGRFTISRDNAKISVYLQMNSLKPEDTAVYYCAADVFSWYGEYDYWGQGTQVTVSS,high polyreactivity
6,QVQLVESGGGLVQAGGSLRLSCAASGFTFRYYAMGWYRQAPGKERELVASISWSSGSTHYADSVKGRFTISRDNAKNTVYLQMNSLKPEDTAVYYCNARHRTSSMHYWGQGTQVTVSS,high polyreactivity
7,QVQLVESGGGLVQAGGSLRLSCAASGFTFRYYAMGWYRQAPGKEREWVAGISSRGGSTYYADSVKGRFTISRDNAKNTVYLQMNSLKPEDSAVYYCATERFLLGLGYDYWGQGTQVTVSS,high polyreactivity
8,QVQLVESGGGLVQAGGSLRLSCAASGFTFRYYTMGWYRQAPGKERELVAAITWSGGSTYYADSVKGRFTISRDNAKNTVYLQMNSLKPEDTAVYYCNAYPSYVSFDYWGQGTQVTVSS,high polyreactivity
9,QVQLVESGGGLVQAGGSLRLSCAASGFTFRYYVMGWYRQAPGKERELVAAISQSGGSTYYADSVKGRFTISRDNAKNTVYLQMNSLKPEDTAVYYCAARLVKYFRPYDYWGQGTQVTVSS,high polyreactivity
10,QVQLVESGGGLVQAGGSLRLSCAASGFTFSAYDMGWYRQAPGKERELVAAISYSGGSTYYADSVKGRFTISRDTAKNTVYLQMNSLKPEDTAVYYCAADGYYTDYWGQGTQVTVSS,high polyreactivity
11,QVQLVESGGGLVQAGGSLRLSCAASGFTFSFYTMGWYRQAPGKERELVAAISRRGGSTYYADSVKGRFTISRDNAKNTVYLQMNSLKPEDTAVYYCATDHIPSVGVDYWGQGTQVTVSS,high polyreactivity
12,QVQLVESGGGLVQAGGSLRLSCAASGFTFSHNPMGWYRQAPGKERELVATITRGGGNTYYADSVKGRCTISRDNAKNTVYLQMNSLKPEDTAVYYCSAERYKRMDYWGQGTQVTVSS,low polyreactivity
13,QVQLVESGGGLVQAGGSLRLSCAASGFTFSHYAMGWYRQAPGKERELVAAITASGGNTYYADSVKGRFTISRDNAKNTVYLQMNSLKPEDTAVYYCNAVSLKFTRKYDYWGQGTQVTVSS,high polyreactivity
14,QVQLVESGGGLVQAGGSLRLSCAASGFTFSKYAMLWYRQAPGKEREFVAAISSRGGRTYYADSVKGRFTISRDNAKNTVYLQMNSLKPEDTAVYYCAVDVHLVTEYDYWGQGTQVTVSS,high polyreactivity
15,QVQLVESGGGLVQAGGSLRLSCAASGFTFSKYVMGWYRQAPGKERELVAAISKRGGSTYYADSVKGRFTISRDNAKNTVYLQMNSLKPEDTAVYYCAARYYLEPILEMDYWGQGTQVTVSS,high polyreactivity
16,QVQLVESGGGLVQAGGSLRLSCAASGFTFSNYAMGWYRQAPGKERELVAAISFRTGRTYYADSVKWRFTISRDNAKNTVFLQMNILKPEDTAVYYCAVQPYHSYLHNYWGQGTQVTVSS,high polyreactivity
17,QVQLVESGGGLVQAGGSLRLSCAASGFTFSNYTMGWYRQAPVKERELVARITTRGTSTYYADSVKGRFTISRDNAKNTVYLQMNSLKPEDTAVYYCNARARYPRGYEYDYWGQGTQVTVSS,high polyreactivity
18,QVQLVESGGGLVQAGGSLRLSCAASGFTFSRNAMGWYRQAPGKERELVAAIDSGGSTDYADSVKGRFTISRDNAKNTVYLQMNSLKPEDSAVYYCAKASSATRYVQLRQDYDYWGQGTQVTVSS,low polyreactivity
19,QVQLVESGGGLVQAGGSLRLSCAASGFTFSRNAMGWYRQAPGKERELVAAISSSGGSTYYADSVKGRFTISRDNAKNTVYLQMNSLKPEDTAVYYCNVDHWRRGRSDNYWGQGTQVTVSS,high polyreactivity
20,QVQLVESGGGLVQAGGSLRLSCAASGFTFSRNTMGWYRPAPGKERELVAAIDSTGGSTYYADSVKGRFTISRDNAKNTVYLQMNSLKPEDTAVYYCATVLPDGRVWYEGYYWGQGTQVTVSS,low polyreactivity
